Several values for one entry are separate records, joined by “and”; a condition that tells them apart may be missing. Identical values can stand only once.
Experiments:
[1] = biological target: the molecule itself; experiment: size exclusion chromatography (self-association)
[2] = tested on: OaAEP1; experiment: Self-activation (acid-induced self-cleavage) of OaAEP1 and mutants, SDS PAGE; assay type: biochemical, Oldenlandia affinis; conditions: activation for 3 hours
Procedure: To self-activate OaAEP1, 1 mM EDTA and 0.5 mM Tris (2-carboxyethyl) phosphine hydrochloride were added to the immature protein and the pH of the solution was adjusted to 4 with glacial acetic acid. Fractions containing the protein (as analyzed by SDS-PAGE) were pooled and then incubated for 3 to 16 hours at room temperature or 37° C. Protein precipitation at this pH allowed removal of the bulk of the contaminating proteins by centrifugation. Activated proteins were concentrated by ultracentrifugation using a 50 kDa cutoff concentrator (Sartorius) and stored at −80° C.
OaAEP1 was cloned and expressed in E. coli as an ubiquitin fusion protein as reported earlier (FIG. 2) (Harris, K. S., et al., Nat Commun, 2015. 6: p. 10199). Using ion exchange and size exclusion chromatography (SEC), sufficient amounts of pure protein suitable for enzymatic and structural analysis were obtained (FIG. 2B). At the neutral pH of purification (pH=7.4), OaAEP1 was mainly present as a heterodimer, where both monomers are in their zymogenic form, but only one monomer had retained in addition the ubiquitin and N-terminal His-tag, while the fusion moiety was cleaved in the other monomer (labeled as “His-Ub-AEP-FL” and “AEP-FL” in FIG. 2B and FIG. 2C). This heterodimer was subjected to crystallization trials for structural studies (see below). In agreement with reference (Harris, K. S., et al., Nat Commun, 2015. 6: p. 10199), activation of OaAEP1 was optimum for pH values in the range of 3.4-4.0 (FIG. 2D). Following activation, OaAEP1 converts to a monomer in solution according to SEC analysis (“AEP-holo” in FIG. 2C). To test the ability of the protein to be activated in trans, the catalytic residue Cys217 was mutated into Ser217.
Since the crystallization conditions are compatible with OaAEP1 activation, the present crystal structure is likely to have captured one of the conformational states occurring along the activation pathway. To determine whether Gln347 belongs to the segment recognized and cleaved during self-activation, mutagenesis experiments targeting region 346-351 of the OaAEP1 protein were performed (FIG. 4C). The role of Gln347 in OaAEP1 auto-activation was particularly assessed by mutating this residue to Ala, and whether enzyme activation was abolished was examined. Only little impact was found on the mutant enzyme activation (FIG. 4C). Residues Asn346, Asp349 and Asp351 that are next to Gln347 were then targeted. […] Thus, trans-activation requires the presence of at least one of the four Asx/Gln residues (with a slight preference for Asp349 or Asp351) found in this segment of the linker.

[3] = tested on: ubiquitin and SNAP tag protein; experiment: Ligation of two well-folded proteins; assay type: biochemical
Procedure: (a) Fluorescence detection using 02 benzylcytosine-Alexa647 of the SNAP protein and SDS PAGE analysis with Comassie blue staining detection of the protein substrate and ligated products. The reaction is schematically depicted as inset. Cys247Ala ligates well folded protein well. […] (b) As little as 30 nM Cys247Ala catalyze ligation of 100 μM Ubiquitin and 500 μM biotin labelled peptide efficiently in 30 min, at room temperature, in pH 7.4 PBS buffer.
The ability of Cys247Ala to ligate ubiquitin with a peptide was first tested. The three residues“Asn-Gly-Leu” were added to the C-terminus of ubiquitin to make it recognizable by Cys247Ala. Another peptide having N-terminal residues GlyLeu was used as the add-on component. At a protein: peptide molar ratio of 1:5, Cys247Ala catalyzed the ligation of more than 90% ubiquitin with the peptide within 10 min (FIG. 6). An amount of 30 nM of Cys247Ala was enough for the reaction compared to 10-30 μM of sortase A typically required to perform productive ligations. […] Ubiquitin having the same “Asn-Gly-Leu” modification at its C-terminal end and a N-terminal modified SNAP (NEB) tag protein were used as substrates. […] Protein ligation can be performed within minutes at neutral pH and at room temperature.

[4] = tested on: peptide substrate "[…]" (SEQ ID NO: 18); experiment: Peptide cyclization assay, kinetic analysis (HPLC/MS); assay type: biochemical; conditions: cyclization of GLPVSTKPVATRNGL, 37° C., enzyme 700 nM
Procedure: (§1) Native and modified amino acids were purchased from Sigma-Aldrich (USA). All peptides used in this manuscript were synthesized in-house using the solid-phase method and HPLC purified. Cyclization assays were performed in 50-μl reaction mixtures containing 20 mM phosphate buffer, ligases (5 to 700 nM) and peptide substrates (10 to 300 μM). Each reaction was performed in triplicate at 37° C. and quenched by adding 5 μl of 1 M HCl solution. The peptides were separated by using a reversed-phase C18 analytical column (150×2.1 mm, Vydac) with a linear gradient from 10% to 50% acetonitrile over 15 min on a Nexera UHPLC system (Shimadzu). For kinetic analysis, the concentrations of WT OaAEP1, mutant OaAEP1, and butelase 1 were fixed at 700 nM, 50 nM, and 20 nM, respectively. The cyclization velocities were calculated by converting the HPLC-peak areas of remained linear precursors or the cyclized products into concentrations. The identity of each HPLC peak was analyzed by MALDI-TOF MS (ABI 4800 MALDI TOF/TOF). The velocities were input into GraphPad Prism (GraphPad Software, San Diego) to obtain the Michaelis-Menten curve and the kinetic parameters (kcat and Km). Comparison for the cyclization efficiency of various OaAEP1 mutants were performed in a volume of 20 μl of the reaction mixture and analyzed by MALDI-TOF MS after 10 mins or 1 hour ligation reaction.
The peptide cyclization activity of mature OaAEP1 was then analyzed using MS and the peptide substrate “[…]” (SEQ ID NO: 18) (FIG. 5A). The turn-over rate (kcat) for OaAEP1 is 0.052 s^−1, a value in good agreement with the previous report (Harris, K. S., et al., Nat Commun, 2015. 6: p. 10199). Likewise, the cyclization activity of butelase 1 extracted from plant was measured using the 15 residues peptide “[…]” (SEQ ID NO: 19) (FIG. 5A) leading to a kcat about 90 times faster than OaAEP1 b.

[5] = tested on: peptide "[…]" (SEQ ID NO: 19); experiment: Peptide cyclization assay of butelase 1; assay type: biochemical; conditions: butelase 1 extracted from plant, peptide GLPVSTKPVATRNHV
Procedure: as §1, with “The velocities were input into GraphPad Prism (GraphPad Software, San Diego) to obtain the Michaelis-Menten curve and the kinetic parameters (kcat and Km).” left out
The peptide cyclization activity of mature OaAEP1 was then analyzed using MS and the peptide substrate “[…]” (SEQ ID NO: 18) (FIG. 5A). […]

[6] = tested on: ubiquitin with C-terminal Asn-Gly-Leu and peptide having N-terminal residues GlyLeu; conditions: comparison value; cited from earlier work
Sequence of ubiquitin with C-terminal Asn-Gly-Leu and peptide having N-terminal residues GlyLeu (as listed by the source): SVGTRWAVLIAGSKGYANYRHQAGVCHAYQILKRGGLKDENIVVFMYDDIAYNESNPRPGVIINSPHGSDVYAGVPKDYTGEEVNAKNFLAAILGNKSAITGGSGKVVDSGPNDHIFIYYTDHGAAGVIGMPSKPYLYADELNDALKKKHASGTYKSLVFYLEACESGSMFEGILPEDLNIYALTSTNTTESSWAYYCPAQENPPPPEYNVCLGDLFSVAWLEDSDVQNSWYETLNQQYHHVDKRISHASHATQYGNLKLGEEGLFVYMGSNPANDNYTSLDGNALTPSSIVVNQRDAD

B1: AEP-holo (activated form of OaAEP1, without the C-terminal cap domain) (enzyme)
chain: SVGTRWAVLIAGSKGYANYRHQAGVCHAYQILKRGGLKDENIVVFMYDDIAYNESNPRPGVIINSPHGSDVYAGVPKDYTGEEVNAKNFLAAILGNKSAITGGSGKVVDSGPNDHIFIYYTDHGAAGVIGMPSKPYLYADELNDALKKKHASGTYKSLVFYLEACESGSMFEGILPEDLNIYALTSTNTTESSWCYYCPAQENPPPPEYNVCLGDLFSVAWLEDSDVQNSWYETLNQQYHHVDKRISHASHATQYGNLKLGEEGLFVYMGSNPANDNYTSLDGNALTPSSIVVNQRDAD
notes: also called mature OaAEP1
binding result [1]: no binding

B2: OaAEP1: wild type asparaginyl endopeptidase from Oldenlandia affinis, SEQ ID NO:3, weak peptide cyclase (protein, listed as Ovaloparmena affinis)
chain: MVRYLAGAVLLLVVLSVAAAVSGARDGDYLHLPSEVSRFFRPQETNDDHGEDSVGTRWAVLIAGSKGYANYRHQAGVCHAYQILKRGGLKDENIVVFMYDDIAYNESNPRPGVIINSPHGSDVYAGVPKDYTGEEVNAKNFLAAILGNKSAITGGSGKVVDSGPNDHIFIYYTDHGAAGVIGMPSKPYLYADELNDALKKKHASGTYKSLVFYLEACESGSMFEGILPEDLNIYALTSTNTTESSWCYYCPAQENPPPPEYNVCLGDLFSVAWLEDSDVQNSWYETLNQQYHHVDKRISHASHATQYGNLKLGEEGLFVYMGSNPANDNYTSLDGNALTPSSIVVNQRDADLLHLWEKFRKAPEGSARKEEAQTQIFKAMSHRVHIDSSIKLIGKLLFGIEKCTEILNAVRPAGQPLVDDWACLRSLVGTFETHCGSLSEYGMRHTRTIANICNAGISEEQMAEAASQACASIP
pH optimum of activation [2]: 3.4-4.0 pH and 3.4 to 4 pH
protein ligation activity (control ligation experiments) [3]: but not with the OaAEP1 wild type construct
ligation of SNAP tag protein with Ubiquitin ([3]; 5 μM SNAP tag, 100 nM Cys247Ala, 4000 nM wild type OaAEP1b): not
turn-over rate (kcat) [4]: 0.052 s⁻¹

B3: butelase 1: AEP1 from Clitoria ternatea, Asx peptide ligase extracted from plant, SEQ ID NO:4 (protein, listed as Clitoria ternatea)
chain: IRDDFLRLPSQASKFFQADDNVEGTRWAVLVAGSKGYVNYRHQADVCHAYQILKKGGLKDENIIVFMYDDIAYNESNPHPGVIINHPYGSDVYKGVPKDYVGEDINPPNFYAVLLANKSALTGTGSGKVLDSGPNDHVFIYYTDHGGAGVLGMPSKPYIAASDLNDVLKKKHASGTYKSIVFYVESCESGSMFDGLLPEDHNIYVMGASDTGESSWVTYCPLQHPSPPPEYDVCVGDLFSVAWLEDCDVHNLQTETFQQQYEVVKNKTIVALIEDGTHVVQYGDVGLSKQTLFVYMGTDPANDNNTFTDKNSLGTPRKAVSQRDADLIHYWEKYRRAPEGSSRKAEAKKQLREVMAHRMHIDNSVKHIGKLLFGIEKGHKMLNNVRPAGLPVVDDWDCFKTLIRTFETHCGSLSEYGMKHMRSFANLCNAGIRKEQMAEASAQACVSIPDNPWSSLHAGFSV
kcat relative to OaAEP1b [5]: about 90 times

B4: sortase A: bacterial sortase commonly used to catalyze transpeptidation reactions; recognizes LPXTG (protein, UniProt Q2FV99 1-206, looked up)
Sortase A: MKKWTNRLMTIAGVVLILVAAYLFAKPHIDNYLHDKDKDEKIEQYDKNVKEQASKDKKQQAKPQIPKDKSKVAGYIEIPDADIKEPVYPGPATPEQLNRGVSFAEENESLDDQNISIAGHTFIDRPNYQFTNLKAAKKGSMVYFKVGNETRKYKMTSIRDVKPTDVGVLDEQKGKDKQLTLITCDDYNEKTGVWEKRKIFVATEVK
amount of enzyme typically required to perform productive ligations [6]: 10 to 30 µM

— patent publication US11795488B2, “Methods for enzymatic peptide ligation” (NANYANG TECHNOLOGICAL UNIVERSITY, priority 2016, dated 2023)
